Experiments:
YenA2 = target: T1, YenA2 (Yersinia entomophaga, UniProt B6A878 1-1364); assay: cryo-EM structure; YenTcA soluble pre-pore form, single-particle cryo-EM, 4.4 Å average resolution, C5 symmetry; 0.1 mg/mL in 25 mM Tris, 150 mM NaCl, pH 7.5, with 10 mM NDSB-195; settings: both partners purified
T1 construct: YenA2, TcA-like protein of Yersinia entomophaga (156 kDa), subunit of YenTcA; UniProt entry name B6A878_9GAMM is printed; holds the shell domain (1-165; 559-812), neuraminidase-like domain (166-332; Natively expressed, no fusion tags; Five copies stand in the YenTcA complex and form the pentameric pore; also called TcA-like protein YenA2
T1 sequence (B6A878 whole entry, the tested form may be a part): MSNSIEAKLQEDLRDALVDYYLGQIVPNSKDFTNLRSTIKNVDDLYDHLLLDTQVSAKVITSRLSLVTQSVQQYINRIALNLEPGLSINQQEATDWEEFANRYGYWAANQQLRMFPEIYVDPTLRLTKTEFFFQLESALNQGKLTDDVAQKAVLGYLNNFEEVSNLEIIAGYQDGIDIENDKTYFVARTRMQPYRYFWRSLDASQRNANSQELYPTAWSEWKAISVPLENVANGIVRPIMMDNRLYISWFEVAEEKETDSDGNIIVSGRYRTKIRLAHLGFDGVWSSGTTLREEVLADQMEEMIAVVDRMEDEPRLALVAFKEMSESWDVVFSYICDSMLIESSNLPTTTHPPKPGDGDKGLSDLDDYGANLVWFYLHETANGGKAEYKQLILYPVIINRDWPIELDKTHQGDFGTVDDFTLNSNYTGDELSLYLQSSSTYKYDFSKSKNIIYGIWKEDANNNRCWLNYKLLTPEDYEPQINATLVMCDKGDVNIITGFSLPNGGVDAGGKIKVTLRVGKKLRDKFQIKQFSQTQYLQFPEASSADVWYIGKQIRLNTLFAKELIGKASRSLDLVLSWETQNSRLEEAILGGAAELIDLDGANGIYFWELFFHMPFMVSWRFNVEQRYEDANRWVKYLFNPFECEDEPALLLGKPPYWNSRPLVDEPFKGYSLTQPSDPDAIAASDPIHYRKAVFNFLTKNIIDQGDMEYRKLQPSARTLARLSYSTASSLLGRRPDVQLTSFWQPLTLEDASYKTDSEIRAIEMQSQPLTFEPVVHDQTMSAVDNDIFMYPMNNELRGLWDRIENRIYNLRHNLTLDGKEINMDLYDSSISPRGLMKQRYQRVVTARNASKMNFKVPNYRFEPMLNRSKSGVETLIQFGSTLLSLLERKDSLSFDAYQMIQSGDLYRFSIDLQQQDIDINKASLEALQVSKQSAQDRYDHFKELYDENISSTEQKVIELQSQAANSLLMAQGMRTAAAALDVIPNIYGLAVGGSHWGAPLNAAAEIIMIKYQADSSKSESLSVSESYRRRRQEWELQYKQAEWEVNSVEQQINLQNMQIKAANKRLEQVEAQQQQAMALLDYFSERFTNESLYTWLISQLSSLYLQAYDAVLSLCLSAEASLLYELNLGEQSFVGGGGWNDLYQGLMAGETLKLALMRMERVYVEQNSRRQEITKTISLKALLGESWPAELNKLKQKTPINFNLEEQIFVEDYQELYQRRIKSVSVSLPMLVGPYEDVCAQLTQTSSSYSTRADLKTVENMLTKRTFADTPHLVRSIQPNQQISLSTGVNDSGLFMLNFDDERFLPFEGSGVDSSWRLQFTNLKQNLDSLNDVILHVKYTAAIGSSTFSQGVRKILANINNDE

YenA1 = target: T2, YenA1 (Yersinia entomophaga, UniProt B6A877 1-1164); assay: as above; settings: both partners purified
T2 construct: YenA1, TcA-like protein of Yersinia entomophaga (130 kDa), subunit of YenTcA; residues 45-304 and 584-1164 are resolved in the alpha-helical shell, residues 305-583 are an unmodelled domain insertion; Natively expressed, no fusion tags; Five copies stand in the YenTcA complex; also called TcA-like protein YenA1
T2 sequence (B6A877 whole entry, the tested form may be a part): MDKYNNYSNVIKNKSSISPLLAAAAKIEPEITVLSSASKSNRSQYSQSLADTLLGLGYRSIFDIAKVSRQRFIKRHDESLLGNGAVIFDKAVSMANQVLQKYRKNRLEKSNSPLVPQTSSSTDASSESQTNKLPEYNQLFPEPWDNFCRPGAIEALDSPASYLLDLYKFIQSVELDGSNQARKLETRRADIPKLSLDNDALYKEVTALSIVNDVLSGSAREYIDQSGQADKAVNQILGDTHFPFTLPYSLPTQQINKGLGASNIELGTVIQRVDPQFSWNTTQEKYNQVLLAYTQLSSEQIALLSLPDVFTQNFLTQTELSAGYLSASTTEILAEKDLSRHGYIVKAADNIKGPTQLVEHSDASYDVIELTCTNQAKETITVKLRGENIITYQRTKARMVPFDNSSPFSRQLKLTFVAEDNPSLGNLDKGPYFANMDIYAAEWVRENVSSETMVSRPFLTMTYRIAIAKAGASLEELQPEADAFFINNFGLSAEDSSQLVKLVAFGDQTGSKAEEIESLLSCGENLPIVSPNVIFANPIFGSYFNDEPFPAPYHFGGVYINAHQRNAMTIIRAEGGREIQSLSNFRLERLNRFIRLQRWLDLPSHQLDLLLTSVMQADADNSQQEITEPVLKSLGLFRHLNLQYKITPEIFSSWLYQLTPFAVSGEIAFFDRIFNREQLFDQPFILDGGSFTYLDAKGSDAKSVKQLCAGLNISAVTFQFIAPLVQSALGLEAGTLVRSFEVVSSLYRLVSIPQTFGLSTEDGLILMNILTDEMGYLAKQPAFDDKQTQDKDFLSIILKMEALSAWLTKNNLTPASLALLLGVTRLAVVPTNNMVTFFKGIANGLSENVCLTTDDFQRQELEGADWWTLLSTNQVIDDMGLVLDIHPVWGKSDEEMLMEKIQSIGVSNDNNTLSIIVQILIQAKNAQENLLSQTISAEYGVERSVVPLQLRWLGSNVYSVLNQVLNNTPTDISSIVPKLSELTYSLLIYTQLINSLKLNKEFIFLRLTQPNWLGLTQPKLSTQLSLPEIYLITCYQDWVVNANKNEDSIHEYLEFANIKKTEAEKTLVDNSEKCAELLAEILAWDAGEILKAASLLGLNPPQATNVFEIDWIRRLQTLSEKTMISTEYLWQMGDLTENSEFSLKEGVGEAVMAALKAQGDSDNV

B1: Chi1 (enzyme)
chain: MEKEEKSNLIYDKDPGYVWDNKNECEGAAEETYQELNYEPSISADKLTWTPTRLAKTVFNTYEDDDDFNVLCYFTDWSQYDPRIINKEIRDTGGRSADILRLNTPDGRPFKRLIYSFGGLIGDKKYSADGNASIAVRLGVATDPDDAIANHKGKTIPVDPDGAVLASINCGFTKWEAGDANERYNQEKAKGLLGGFRLLHEADKELEFSLSIGGWSMSGLFSEIAKDEILRTNFVEGIKDFFQRFPMFSHLDIDWEYPGSIGAGNPNSPDDGANFAILIQQITDAKISNLKGISIASSADPAKIDAANIPALMDAGVTGINLMTYDFFTLGDGKLSHHTNIYRDPSDVYSKYSIDDAVTHLIDEKKVDPKAIFIGYAGYTRNAKNATITTSIPSEEALKGTYTDANQTLGSFEYSVLEWTDIICHYMDFEKGEGRNGYKLVHDKVAKADYLYSEATKVFISLDTPRSVRDKGRYVKDKGLGGLFIWSGDQDNGILTNAAHEGLKRRIKNKVIDMTPFYLDSDEELPTYTEPAEPQCEACNIK
notes: Chi1, endochitinase of Yersinia entomophaga, subunit of YenTcA; earlier crystal structure PDB 3oa5 was fitted as a rigid body; Natively expressed, no fusion tags; Five copies stand in YenTcA; Chi1 is not in the deposited atomic model 6ogd; also called endochitinase Chi1; Chi1 subunit
YenA2
  binding result: binds

B2: Chi2 (enzyme)
chain: MVNKYTYTSSKAMSDISDVIGEPLAAWDSQVGGRVFNVIFDGKVYTNTYWVERWQVPGIGSSDGNPHNAWKFVRAATADEINKIGNPTTADVKPTENIPSPILVEDKYTEETYSRPDVNFKEDGSQGNLSYTATRVCAPMYNHYVGDKTKPKLSAYITDWCQYDARLDGGGSKEEERGRGFDLATLMQNPATYDRLIFSFLGICGDIGNKSKKVQEVWDGWNAQAPSLGLPQIGKGHIVPLDPYGDLGTARNVGLPPESADTSIESGTFLPYYQQNRAAGLLGGLRELQKKAHAMGHKLDLAFSIGGWSLSSYFSALAENPDERRVFVASVVDFFVRFPMFSCVDIDWEYPGGGGDEGNISSDKDGENYVLLIKELRSALDSRFGYSNRKEISIACSGVKAKLKKSNIDQLVANGLDNIYLMSYDFFGTIWADYIGHHTNLYSPKDPGEQELFDLSAEAAIDYLHNELGIPMEKIHLGYANYGRSAVGGDLTTRQYTKNGPALGTMENGAPEFFDIVKNYMDAEHSLSMGKNGFVLMTDTNADADFLFSEAKGHFISLDTPRTVKQKGEYAAKNKLGGVFSWSGDQDCGLLANAAREGLGYVADSNQETIDMGPLYNPGKEIYLKSISEIKSK
notes: Chi2, endochitinase of Yersinia entomophaga, subunit of YenTcA; N-terminal domain residues 1-91 (unmodelled), chitinase domain residues 92-632 (earlier crystal structure PDB 4dws); Natively expressed, no fusion tags; Five copies stand in the YenTcA complex; also called endochitinase Chi2; Chi2 subunit
YenA1
  binding result: binds

Source: PMC6486591, “Cryo-EM structures of the pore-forming A subunit from the Yersinia entomophaga ABC toxin” (Nature Communications, 2019)
